Measurements: article PMC8486122, “Structural basis for antibody binding to adenylate cyclase toxin reveals RTX linkers as neutralization-sensitive epitopes” (PLoS Pathogens, 2021)

B1: M1H5 Fab (Fab, V domains shown)
VH: EVNLVESGGDLVKPGGSLKLSCAASGFTFSSYGMSWVRQTPDKRLEWVATISSGGTYTYYPDSVKGRFTISRDNAKNTLYLQMSSLKSEDTAMYYCAREIMRGGGYYFDYWSQGTTLTVSS
VL: DIQMIQSTSSLSASLGDRVTISCRASQDISNYLNWYQQKPDGTVKLLIYYTSRLHSGVPSRFSGSGSGTDYSLTISNLEQEDIATYFCQQGNTLPYTFGGGTKLEIK
B2: M2B10 Fab (Fab, V domains shown)
VH: EVQLQQSGAELVRPGTSVKVSCKASGYAFTNYLIEWVKQRPGQGLEWIGVINPGIGNTNYNEKFKGKATLTADKSSSTVYMQLSSLTSDDSAVYFCARGLNYGSSQHWYFDVWGAGTSVTVSS
VL: IVMTQSPAILSASLGERVTMTCTASSSVSSSYLHWYQQKPGSSPKLWIYSTSNLASGVPARFSGSGSGTSYSLTISSMEAEDAATYYCHQYHRSPPTFGAGTKLEIK

Experiments:
[1] = molecular target: T1, 123cap (cap fusion variant F5: RTX blocks I–III fused to the block V capping structure) (Bordetella pertussis (strain not named …, stabilised)); assay: SPR; settings: both partners purified
T1 construct: source: E. coli BL21 DE3, purified (Ni-NTA, SEC); not shown: 8xHis, N-terminal, kept
T1 chain: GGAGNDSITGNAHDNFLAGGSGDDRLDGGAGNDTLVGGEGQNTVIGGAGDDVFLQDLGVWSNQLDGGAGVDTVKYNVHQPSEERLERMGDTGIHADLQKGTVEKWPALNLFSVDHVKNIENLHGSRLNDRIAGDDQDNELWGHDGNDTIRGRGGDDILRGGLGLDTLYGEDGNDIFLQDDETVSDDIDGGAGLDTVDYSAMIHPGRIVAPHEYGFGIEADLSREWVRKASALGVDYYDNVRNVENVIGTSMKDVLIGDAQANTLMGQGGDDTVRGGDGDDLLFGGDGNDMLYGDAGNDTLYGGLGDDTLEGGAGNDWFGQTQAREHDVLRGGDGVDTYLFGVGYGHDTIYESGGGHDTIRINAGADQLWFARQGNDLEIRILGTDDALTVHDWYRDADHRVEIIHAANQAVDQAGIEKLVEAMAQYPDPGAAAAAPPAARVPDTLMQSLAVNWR

[2] = molecular target: T2, RTX751 (ACT residues 751–1706) (Bordetella pertussis (strain Tohama I / …, UniProt P0DKX7)); assay: SPR; settings: both partners purified
T2 construct: also called full RTX domain; full RTX

Row | Binder | Kd [1] [nM] | Kd [2] [nM]
1 | B1 | 0.7 | 0.8
2 | B2 | 0.6 | 0.75
